From the supplement of paper PMC10724198
± gives the standard deviation of the averaged measurements.

test system: Saccharomyces cerevisiae; assay: protein stability index of tFT-peptide fusion (C-terminal peptide) (PSI (0-1 scale)); higher = more stable (slower turnover); settings: genetic background: wild type; temperature: 30 C
Description: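 Multiplexed protein stability (MPS) profiling in S. cerevisiae. Random 12-aa peptides (tFT-X12 library) are fused to the C-terminus of a sfGFP-mCherry tandem fluorescent timer, after mCherry and a GGGS linker. Cells are FACS-sorted into 8 mCherry/sfGFP bins and deep-sequenced. The protein stability index (PSI) is the read-weighted bin average, scaled from 0 (unstable) to 1 (stable). Only peptides with >10 reads are reported; cells were grown at 30 °C in SC-His with glucose.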
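Note: PSI is a weighted mean of sequencing reads over stability bins, variants kept only with over 10 reads, mCherry proximal and sfGFP distal, peptide attached via GGGS linker.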

| Sequence | protein stability index |
| --- | --- |
| GTGEMNDKDQEE | 0.798 ± 0.12 |
| GTKEYKKNRKII | 0.653 ± 0.03 |
| GTQPAAGNTPWA | 0.703 ± 0.029 |
| GTSPSSVRPLCG | 0.7043 ± 0.0069 |
| GTTHRSKRLRRK | 0.768 ± 0.035 |
| GTVEGAVQGLVE | 0.718 ± 0.045 |
| GTVRGVVRGRGG | 0.664 ± 0.012 |
| GTVSEGAMSVGF | 0.809 ± 0.11 |
| GTVWQSNSGAAT | 0.68 ± 0.028 |
| GTWAGGGWSCES | 0.696 ± 0.039 |
| GTYNIGVFAPEN | 0.653 ± 0.032 |
| GVACEGRGGRCW | 0.689 ± 0.012 |
| GVANSPTVRERT | 0.666 ± 0.018 |
| GVCASGAGSVGG | 0.662 ± 0.029 |
| GVCLQGRRASGE | 0.693 ± 0.091 |
| GVCQSEKSARGI | 0.664 ± 0.05 |
| GVDGLLRVYVME | 0.674 ± 0.029 |
| GVEGASVLGWGR | 0.704 ± 0.19 |
| GVGAPRLPPRPG | 0.696 ± 0.012 |
| GVGEWRSGVGVG | 0.592 ± 0.043 |
| GVGFGWGGVWME | 0.691 ± 0.0073 |
| GVGGEGRNDALI | 0.635 ± 0.037 |
| GVGGEIGRGGEY | 0.676 ± 0.035 |
| GVGGEPDLADWG | 0.762 ± 0.023 |
| GVGGGGCVLVRG | 0.723 ± 0.018 |

| Sequence | protein stability index |
| --- | --- |
| GVGGGGIGVGMG | 0.7262 ± 0.0018 |
| GVGGPLRPGPCQ | 0.758 ± 0.24 |
| GVGGVARGERIP | 0.678 ± 0.0085 |
| GVGLSGEGGLGR | 0.642 ± 0.015 |
| GVGQGGPVVVGR | 0.665 ± 0.024 |
| GVGREGGCWRTG | 0.702 ± 0.11 |
| GVGRPSDGPFRA | 0.666 ± 0.047 |
| GVGSCVILRLRN | 0.557 ± 0.02 |
| GVGWGDVWGCGE | 0.741 ± 0.038 |
| GVGWWLGLGVIW | 0.692 ± 0.029 |
| GVIYFSLSSFPL | 0.655 ± 0.14 |
| GVLGGAGCGVVL | 0.731 ± 0.023 |
| GVLPYRYRGLVL | 0.64 ± 0.16 |
| GVLRAWARLWGN | 0.599 ± 0.039 |
| GVLRICFGGLVS | 0.729 ± 0.031 |
| GVLRIRIGLGRG | 0.653 ± 0.028 |
| GVLRPLVGALGM | 0.609 ± 0.0083 |
| GVNMGKIYKIRN | 0.649 ± 0.03 |
| GVPPFAPPPPPH | 0.703 ± 0.015 |
| GVPPTPTHPCTC | 0.758 ± 0.072 |
| GVPYSPKSHRDH | 0.643 ± 0.047 |
| GVRERSCIKKAR | 0.604 ± 0.058 |
| GVRGVSHMDGGD | 0.758 ± 0.16 |
| GVSAPRFPGALA | 0.69 ± 0.01 |
| GVSLREASVAAI | 0.7104 ± 0.0055 |

| Sequence | protein stability index |
| --- | --- |
| GVSVICGFPVSC | 0.732 ± 0.056 |
| GVSWSWGDLAVL | 0.756 ± 0.016 |
| GVTGGGVVNRGV | 0.689 ± 0.088 |
| GVVIGWAGYKGT | 0.671 ± 0.043 |
| GVVLDVRCVGLF | 0.661 ± 0.021 |
| GVVRSSRRYSFR | 0.705 ± 0.034 |
| GVVSRGGRRLGV | 0.7011 ± 0.0035 |
| GVWPWWGWSCCF | 0.782 ± 0.1 |
| GVYNGGIPQVLQ | 0.6843 ± 0.0028 |
| GVYSVACVSGSV | 0.64 ± 0.014 |
| GWAFGVRGMIKK | 0.74 ± 0.043 |
| GWAVGGGGGRGR | 0.617 ± 0.057 |
| GWCAPLGLLLVL | 0.539 ± 0.031 |
| GWCGGLWRFGWG | 0.723 ± 0.092 |
| GWDCKGNDCWNG | 0.693 ± 0.055 |
| GWDQSGVVFVCG | 0.605 ± 0.017 |
| GWDSGHLVVMEI | 0.715 ± 0.033 |
| GWESERWSTLHK | 0.763 ± 0.024 |
| GWEVGGGRLGVV | 0.716 ± 0.11 |
| GWGCGGGGAWSG | 0.767 ± 0.018 |
| GWGFLGGTVAAV | 0.697 ± 0.035 |
| GWGGLFGCWVCG | 0.656 ± 0.015 |
| GWGIFRISSFGT | 0.713 ± 0.018 |
| GWGPSSAGGAGG | 0.752 ± 0.12 |
| GWGWGSMDLRDR | 0.6919 ± 0.0024 |

| Sequence | protein stability index |
| --- | --- |
| GWIGVFGLFGCG | 0.752 ± 0.083 |
| GWKLGAVRRGVI | 0.706 ± 0.015 |
| GWLGGGVRLGRL | 0.714 ± 0.067 |
| GWRACWVRAPRW | 0.708 ± 0.018 |
| GWRRSWVWDVGG | 0.699 ± 0.027 |
| GWRSGGVYDGNI | 0.6572 ± 0.0027 |
| GWSVDGVVLGAP | 0.728 ± 0.046 |
| GWVFCLFPVGGL | 0.607 ± 0.051 |
| GWVGGCGGGRGI | 0.683 ± 0.0092 |
| GWVHGEDMAVFG | 0.7 ± 0.0049 |
| GWVVSGIFGRCC | 0.689 ± 0.013 |
| GWWLFRSRWWHE | 0.573 ± 0.022 |
| GWWWGGGGAWSG | 0.718 ± 0.071 |
| GYGWGVGGGFGR | 0.691 ± 0.019 |
| GYLEGMVYRESD | 0.689 ± 0.025 |
| GYLNCFGYVWGP | 0.653 ± 0.04 |
| GYSSPPLITIPH | 0.659 ± 0.023 |
| HALFPRAPSPPW | 0.7513 ± 0.0055 |
| HAVRQNDTYKHG | 0.74 ± 0.087 |
| HCPRPRPTCRPP | 0.615 ± 0.1 |
| HCSGGFRCPPLV | 0.6862 ± 0.0046 |
| HDEGLEGLTVVF | 0.675 ± 0.019 |
| HECVRGLSFVLV | 0.668 ± 0.081 |
| HEEPEVPEIQHV | 0.743 ± 0.063 |
| HFSRNYINENVS | 0.716 ± 0.04 |

| Sequence | protein stability index |
| --- | --- |
| HFWGCCRRRCLK | 0.66 ± 0.051 |
| HGKGLKEKRVEG | 0.672 ± 0.041 |
| HGKNLALNEKCW | 0.691 ± 0.034 |
| HGSYYSAVWGKG | 0.684 ± 0.096 |
| HHRVLRCNNPFR | 0.731 ± 0.12 |
| HHSAPARLAFRY | 0.673 ± 0.023 |
| HHTDSLRPTAPH | 0.73 ± 0.054 |
| HISHPTGDVQTP | 0.627 ± 0.083 |
| HKSRHSPKPPFT | 0.6677 ± 0.0026 |
| HLPLLLFHPPLH | 0.637 ± 0.0051 |
| HLPPPPRITVVP | 0.716 ± 0.073 |
| HLPPPPSPSPPP | 0.686 ± 0.012 |
| HLQLCAPISTTD | 0.652 ± 0.07 |
| HLTVSRIRLISK | 0.658 ± 0.079 |
| HLYARHCPPPNR | 0.677 ± 0.052 |
| HNKSGEKKKKEA | 0.697 ± 0.0076 |
| HNPRTCRAPLSL | 0.671 ± 0.0079 |
| HPAAPPPPPPPR | 0.732 ± 0.066 |
| HPAPNPGFHFDR | 0.733 ± 0.065 |
| HPAPVPSAPSDA | 0.678 ± 0.054 |
| HPDPSPPTKPPP | 0.68 ± 0.031 |
| HPFASRSRFTPR | 0.753 ± 0.063 |
| HPGLRLENVNPQ | 0.702 ± 0.014 |
| HPHPPQSTNPYT | 0.677 ± 0.058 |
| HPHVPAPRVPHP | 0.721 ± 0.047 |

| Sequence | protein stability index |
| --- | --- |
| HPNPYTTPGTPA | 0.625 ± 0.0078 |
| HPPPPAPTPSSR | 0.711 ± 0.04 |
| HPPPPPRSLPLP | 0.692 ± 0.08 |
| HPPPPPSPPGLP | 0.6578 ± 0.0013 |
| HPPSSSHTQPPR | 0.683 ± 0.014 |
| HPPTPPPPFPPP | 0.659 ± 0.018 |
| HPSAVPHPPDIV | 0.659 ± 0.046 |
| HPSPTAPPSASN | 0.66 ± 0.022 |
| HPTAILLVPLLL | 0.597 ± 0.029 |
| HQCVIVNFEKYD | 0.669 ± 0.038 |
| HQSSHTRMARSL | 0.723 ± 0.013 |
| HRIHRSLLTGGR | 0.708 ± 0.021 |
| HRQTAKLKRIVI | 0.651 ± 0.093 |
| HRREEDQRPYSR | 0.768 ± 0.021 |
| HRTLPPPPLTVP | 0.579 ± 0.027 |
| HRVRICWVPRSR | 0.674 ± 0.027 |
| HSCLVRSDPPPS | 0.704 ± 0.12 |
| HSPSHPGSPHAC | 0.7 ± 0.033 |
| HSPSKLSSSTAT | 0.681 ± 0.032 |
| HSRSRAEPHHPP | 0.555 ± 0.037 |
| HSTSLLPSGSWF | 0.734 ± 0.016 |
| HSVEPARSSSAM | 0.669 ± 0.07 |
| HTANYILPLIHI | 0.635 ± 0.044 |
| HTRSPVPPPPPS | 0.657 ± 0.0019 |
| HVDGGAVLLEGQ | 0.67888 ± 0.00049 |

| Sequence | protein stability index |
| --- | --- |
| HVGGISSPLTPC | 0.656 ± 0.025 |
| HVGYLIMVYRGR | 0.646 ± 0.072 |
| HVSPSPYPPGYP | 0.697 ± 0.026 |
| HWGRGGRSGGDR | 0.697 ± 0.025 |
| HWHLIKIKLKEK | 0.742 ± 0.043 |
| HWYLRCAVCEGV | 0.651 ± 0.022 |
| HYVQARMRSAVP | 0.636 ± 0.091 |
| IAAVQSGGRVAG | 0.462 ± 0.057 |
| IAGMFSLKFGVP | 0.714 ± 0.082 |
| IAKLLHSPSTFT | 0.688 ± 0.014 |
| IAPLMSSILYPI | 0.685 ± 0.025 |
| ICHLTIFHLRRL | 0.6151 ± 0.0037 |
| ICIKKNTLTKTE | 0.669 ± 0.012 |
| ICLGCFEEYEGV | 0.812 ± 0.077 |
| ICSQLVVAWEGV | 0.714 |
| IDFNWESSTMNI | 0.7438 ± 0.0058 |
| IDGGSAWSAVSL | 0.687 ± 0.018 |
| IEATHKIDRCKD | 0.676 ± 0.0086 |
| IEPTFDGSLCLG | 0.7 ± 0.0094 |
| IESASRSTTGGI | 0.77 ± 0.14 |
| IFPFKDDVPFVS | 0.684 ± 0.0015 |
| IFPNSGKIEVLA | 0.574 ± 0.016 |
| IFPSIPTLLPPS | 0.701 ± 0.041 |
| IFRASTGASYRT | 0.5738 ± 0.0034 |
| IFWGFSFRGGGG | 0.667 ± 0.012 |

| Sequence | protein stability index |
| --- | --- |
| IGCFVEFLYGVW | 0.593 ± 0.023 |
| IGFHGALPGICL | 0.663 ± 0.054 |
| IGLRKGVGIMRP | 0.637 ± 0.12 |
| IGRGAPPGWVGA | 0.704 ± 0.02 |
| IGSLCTPVCQCS | 0.607 ± 0.019 |
| IHLCPPPALRES | 0.703 ± 0.0083 |
| IHRTSVALFFFP | 0.713 ± 0.034 |
| IIAESPWFLIIR | 0.444 ± 0.094 |
| IIEESTRPSPLG | 0.697 ± 0.059 |
| IIFQWVVPTILQ | 0.546 ± 0.019 |
| IIIVGSWSGGGG | 0.663 ± 0.025 |
| IILRSSLLPLLY | 0.548 ± 0.013 |
| IINKKANQKKKE | 0.68 ± 0.032 |
| IIPEPTKFSRQR | 0.7059 ± 0.0026 |
| IIQTTKPTRNIK | 0.67 ± 0.022 |
| IIRINSKMGSRK | 0.725 ± 0.0078 |
| IKIILLEKQGSK | 0.697 ± 0.033 |
| IKKANRKTKPMK | 0.712 ± 0.078 |
| IKKKVKNQKENQ | 0.726 ± 0.013 |
| IKKNRYYKRIII | 0.657 ± 0.028 |
| IKNEKKKEIELN | 0.639 ± 0.0065 |
